# According to PMC8940645:
# Experiments:
# [1] = confocal immunofluorescence, giantin co-staining; conditions: glycan lost; control: wild type
# [2] = active lysate incubation, R4-ICD/FGFR4 immunoblot ratio; conditions: glycan lost; control: wild type
# [3] = NGI-1 overnight, R4-ICD immunoblot; conditions: glycan lost; control: vehicle
# [4] = kifunensine 5 μM time course, R4-ICD immunoblot; conditions: glycan changed form; control: 0 h kifunensine
substance,measurement,setting,value
FGFR4: N290Q,localisation_or_trafficking,[1],no change
same,"other: proteolytic processing, other: relative scale 0 to 3+",[2],"abolishes, 0 vs +++"
FGFR4: N311Q,localisation_or_trafficking,[1],no change
same,"other: proteolytic processing, other: relative scale 0 to 3+",[2],"decreases, ++ vs +++"
FGFR4: N322Q,localisation_or_trafficking,[1],no change
FGFR4: NGI-1 10 μM,other: proteolytic processing,[3],increases
FGFR4: NGI-1 100 μM,other: proteolytic processing,[3],no change
FGFR4: kifunensine 8 h,other: proteolytic processing,[4],increases
FGFR4: kifunensine 16 h,other: proteolytic processing,[4],no change
